The assay addresses T1, human MUC1, tumor-associated form (tMUC), on tumor cells and tumor tissue (human, UniProt P15941 24-1255, tumor-associated (aberrant) glycosylation, not specified further).
T1 construct: also called tMUC1; tumor-associated glycosylated MUC1
Put plainly: fluorescence microscopy of CAR T cells co-incubated with HPAFII cells.

T1 sequence (P15941 other isoform, or with tags, fused parts or gaps limits assumed): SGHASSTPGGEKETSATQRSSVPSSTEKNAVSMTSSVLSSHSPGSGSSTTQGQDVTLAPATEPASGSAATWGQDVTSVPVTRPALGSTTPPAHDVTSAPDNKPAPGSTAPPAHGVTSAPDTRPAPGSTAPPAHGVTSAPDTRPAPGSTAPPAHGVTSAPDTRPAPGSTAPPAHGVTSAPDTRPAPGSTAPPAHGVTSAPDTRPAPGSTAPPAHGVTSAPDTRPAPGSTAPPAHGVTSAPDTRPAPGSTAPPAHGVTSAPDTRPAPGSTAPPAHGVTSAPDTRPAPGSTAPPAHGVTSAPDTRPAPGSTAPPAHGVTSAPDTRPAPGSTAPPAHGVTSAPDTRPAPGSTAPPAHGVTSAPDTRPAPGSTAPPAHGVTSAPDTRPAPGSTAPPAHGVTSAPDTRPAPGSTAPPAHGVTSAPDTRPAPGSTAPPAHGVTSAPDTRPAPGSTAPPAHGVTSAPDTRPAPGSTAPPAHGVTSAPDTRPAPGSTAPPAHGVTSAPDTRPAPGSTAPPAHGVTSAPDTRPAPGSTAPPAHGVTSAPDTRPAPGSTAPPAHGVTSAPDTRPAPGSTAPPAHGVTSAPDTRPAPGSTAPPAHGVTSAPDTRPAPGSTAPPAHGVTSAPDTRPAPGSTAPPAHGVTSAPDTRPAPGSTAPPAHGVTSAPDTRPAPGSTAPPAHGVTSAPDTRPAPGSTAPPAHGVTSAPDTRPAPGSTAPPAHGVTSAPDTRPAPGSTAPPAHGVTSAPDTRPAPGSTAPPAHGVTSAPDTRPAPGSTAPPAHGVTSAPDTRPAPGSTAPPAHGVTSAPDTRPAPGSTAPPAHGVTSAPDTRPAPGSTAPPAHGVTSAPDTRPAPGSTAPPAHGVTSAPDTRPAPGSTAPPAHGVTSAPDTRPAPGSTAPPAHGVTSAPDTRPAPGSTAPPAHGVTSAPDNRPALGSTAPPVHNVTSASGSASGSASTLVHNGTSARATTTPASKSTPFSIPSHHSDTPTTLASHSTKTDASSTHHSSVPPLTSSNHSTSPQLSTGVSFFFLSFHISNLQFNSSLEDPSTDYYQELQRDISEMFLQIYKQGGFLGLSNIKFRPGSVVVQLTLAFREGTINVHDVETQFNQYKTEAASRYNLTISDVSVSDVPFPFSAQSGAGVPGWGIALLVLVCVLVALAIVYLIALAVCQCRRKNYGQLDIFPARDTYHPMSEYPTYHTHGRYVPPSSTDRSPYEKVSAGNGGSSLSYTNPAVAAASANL

B1: TAB-28z-mKATE chimeric antigen receptor (2nd generation), on T cells (receptor)
chain: EVQLQQSGGERATPGASVKMSCKTSGYTFTNYWMHWVKQRPGQGLEWIGYINPSSGYTQYNQKFKDKATLTADKSSSTAYIQLSSLTSEDSAVYYCSTYYGDYLFPYWGQGTLVTVSAGGGGSGGGGSGGGGSDVLMTQTPLSLPVSLGDQASISCRSSQDIVYGNGNTYLEWYLQKPGQSPKLLIYKVSNRFSGVPDRFSGSGSGTDFTLKISRVEAEDLGVYYCFQGSHVPYTFGGGTKLEIKRAAAIEVEQKLISEEDLLDNEKSNGTIIHVKGKHLCPSPLFPGPSKPFWVLVVVGGVLACYSLLVTVAFIIFWVRSKRSRLLHSDYMNMTPRRPGPTRKHYQPYAPPRDFAAYRSRVKFSRSADAPAYQQGQNQLYNELNLGRREEYDVLDKRRGRDPEMGGKPRRKNPQEGLYNELQKDKMAEAYSEIGMKGERRRGKGHDGLYQGLSTATKDTYDALHMQALPPRARGAAAGAGGAGRMVSELIKENMHMKLYMEGTVNNHHFKCTSEGEGKPYEGTQTMRIKAVEGGPLPFAFDILATSFMYGSKTFINHTQGIPDFFKQSFPEGFTWERVTTYEDGGVLTATQDTSLQDGCLIYNVKIRGVNFPSNGPVMQKKTLGWEASTETLYPADGGLEGRADMALKLVGGGHLICNLKTTYRSKKPAKNLKMPGVYYVDRRLERIKEADKETYVEQHEVAVARYCDLPSKLGHR
notes: Expressed on the surface of T cells or Jurkat cells; also called CAR-mKATE; CAR-mKate fusion protein
B1: the binding result was “binds”.

For the origin of these results see US12605469B2, “Tumor specific antibody conjugates and uses therefor” (The University of North Carolina at Charlotte, priority 2019, dated 2026).
